Assay results: PMC9674253

Tests used:
[1] = target: NPAS4 (1-348);ARNT (82-465) (mouse;mouse, UniProt Q8BGD7;P53762 1-348;82-465, |); experiment: fluorescence polarization
[2] = target: NPAS4 (1-348);ARNT2 (50-439) (mouse;mouse, UniProt Q8BGD7;Q61324 1-348;50-439, |); experiment: fluorescence polarization
Chain of NPAS4 (1-348);ARNT2 (50-439) (Q8BGD7 1-348, chain 1 of 2): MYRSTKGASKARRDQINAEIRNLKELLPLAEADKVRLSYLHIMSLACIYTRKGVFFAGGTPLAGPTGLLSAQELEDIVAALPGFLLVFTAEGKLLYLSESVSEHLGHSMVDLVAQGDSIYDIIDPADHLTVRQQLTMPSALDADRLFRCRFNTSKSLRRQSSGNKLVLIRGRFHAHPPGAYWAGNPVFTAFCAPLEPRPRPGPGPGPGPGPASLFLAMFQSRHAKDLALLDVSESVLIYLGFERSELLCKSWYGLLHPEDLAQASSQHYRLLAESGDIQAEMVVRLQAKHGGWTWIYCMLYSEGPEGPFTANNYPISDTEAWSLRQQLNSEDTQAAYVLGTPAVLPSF
Chain of NPAS4 (1-348);ARNT2 (50-439) (Q61324 50-439, chain 2 of 2): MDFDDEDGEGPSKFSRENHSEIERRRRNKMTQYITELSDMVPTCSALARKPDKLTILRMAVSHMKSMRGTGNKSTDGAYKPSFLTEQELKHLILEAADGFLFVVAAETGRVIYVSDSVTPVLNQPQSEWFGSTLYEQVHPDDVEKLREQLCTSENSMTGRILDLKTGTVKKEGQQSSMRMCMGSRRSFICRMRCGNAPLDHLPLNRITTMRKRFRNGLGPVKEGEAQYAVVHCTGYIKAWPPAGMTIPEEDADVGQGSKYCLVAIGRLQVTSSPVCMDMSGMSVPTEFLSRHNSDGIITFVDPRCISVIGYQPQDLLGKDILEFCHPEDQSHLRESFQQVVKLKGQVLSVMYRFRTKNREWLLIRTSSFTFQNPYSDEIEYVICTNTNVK

Chain of NPAS4 (1-348);ARNT (82-465) (Q8BGD7 1-348, chain 1 of 2): as the sequence (Q8BGD7 1-348, chain 1 of 2) above
Chain of NPAS4 (1-348);ARNT (82-465) (P53762 82-465, chain 2 of 2): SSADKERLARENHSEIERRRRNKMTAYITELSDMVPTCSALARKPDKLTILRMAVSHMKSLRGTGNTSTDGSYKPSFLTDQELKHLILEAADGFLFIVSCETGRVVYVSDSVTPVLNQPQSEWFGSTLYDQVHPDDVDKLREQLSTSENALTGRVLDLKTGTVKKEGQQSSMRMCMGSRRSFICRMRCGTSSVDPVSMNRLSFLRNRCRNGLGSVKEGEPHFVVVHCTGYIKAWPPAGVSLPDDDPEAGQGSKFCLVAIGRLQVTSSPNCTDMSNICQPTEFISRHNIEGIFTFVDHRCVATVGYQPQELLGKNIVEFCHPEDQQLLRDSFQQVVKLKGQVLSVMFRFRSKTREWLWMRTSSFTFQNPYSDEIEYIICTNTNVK

B1: 21-mer NPAS4 response element (FP) (dsDNA)
DNA 1: GGATGAGGTCGTGAGTGATGA
DNA 2: TCATCACTCACGACCTCATCC
[1]
  Kd: 13.1 ± 0.4 nM
[2]
  Kd: 46.8 ± 3.9 nM
